The target in this assay is T1, TEV protease (Tobacco etch virus, UniProt P04517).
T1 construct: With co-expression of the TEV protease; expressed in transfected cells; host or cells: HEK293 / HEK293T
Briefly: iTEV (EK) coiled-coil sensor in HEK293 cells without or with TEV protease. Type of assay: cell-based. The text has this: HEK293 cells were transfected with the iTEV (EK) sensor without (top two panels) or with (bottom two panels) TEV protease.
For example, heterodimeric coiled coils were used to replace split GFP in iTEV (De Crescenzo, G., Litowski, J. R., Hodges, R. S. & O'Connor-McCourt, M. D. Real-Time Monitoring of the Interactions of Two-Stranded de NovoDesigned Coiled-Coils: Effect of Chain Length on the Kinetic and Thermodynamic Constants of Binding †. Biochemistry 42, 1754-1763 (2003)).

T1 sequence (P04517 2038-2279): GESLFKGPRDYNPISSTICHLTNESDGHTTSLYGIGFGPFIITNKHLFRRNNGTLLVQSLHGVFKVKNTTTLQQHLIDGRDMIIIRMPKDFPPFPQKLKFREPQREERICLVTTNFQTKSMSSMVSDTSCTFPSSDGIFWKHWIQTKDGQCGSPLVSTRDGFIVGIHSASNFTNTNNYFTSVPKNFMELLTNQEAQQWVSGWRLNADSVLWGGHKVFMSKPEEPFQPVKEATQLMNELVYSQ

B1: iTEV (EK) (protein)
chain: MGGSKVSALKEKVSALKEKVSALKEKVSALKEKVSALKEGGSGSTTNIAPALDGAFHRITSSSSLMGLCDETATIIREITGYDRVMVVRFDEEGNGEILSERRRADLEAFLGNRYPASTIPQIARRLYEHNRVRLLVDVNYTPVPLQPRISPLNGRDLDMSLSCLRSMSPIHQKYMQDMGVGATLVCSLMVSGRLWGLIACHHYEPRFVPFHIRAAGEALAETCAIRIATLESENLYFQSEFCEREQIHLAGSIQPHGILLAVKEPDNVVIQASINAAEFLNTNSVVGRPLRDLGGDLPLQILPHLNGPLHLAPMTLRCTVGSPPRRVDCTIHRPSNGGLIVELEPATKLEGGGSGGSEVSALEKEVSALEKEVSALEKEVSALEKEVSALEK
modifications: (Amino acid sequence of iTEV(+) 5.1)
As to B1, the infrared fluorescence entry runs as follows: (TEV protease co-expressed) “becomes infrared fluorescent”; (without TEV protease) “not infrared fluorescent”.

(Values after patent publication US10201282B2 (The Regents of the University of California, priority 2014, dated 2019).)
